Ends that are not written are not given here. * marks the point of attachment. Biotin = O=C1N[C@H]2[C@H](CS[C@H]2CCCCC(=O)*)N1
Key:
Assay in all cases: A/G assays
[1] = target: T1, GST-cytohesin binding protein PDZ domain fusion protein (Homo sapiens (Human), UniProt O60759 74-165)
T1 construct: also called CBP; not shown: glutathione S-transferase encoded by vector pGEX-3X (Pharmacia)
T1 sequence: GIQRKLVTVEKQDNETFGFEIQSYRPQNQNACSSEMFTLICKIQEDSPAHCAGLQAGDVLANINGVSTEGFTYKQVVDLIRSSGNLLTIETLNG

[2] = target: T2, GST-mouse syntenin fusion protein (Mus musculus, UniProt O08992 108-286)
T2 construct: also called Mus musculus Syntenin; not shown: glutathione S-transferase encoded by vector pGEX-3X (Pharmacia)
T2 chain: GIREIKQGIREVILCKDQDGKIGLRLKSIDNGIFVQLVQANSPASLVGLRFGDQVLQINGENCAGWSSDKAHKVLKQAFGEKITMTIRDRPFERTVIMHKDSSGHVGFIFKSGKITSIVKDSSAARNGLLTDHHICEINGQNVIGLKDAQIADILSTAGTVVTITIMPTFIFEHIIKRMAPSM

[3] = target: T3, K559 PDZ-GST fusion protein (Homo sapiens (Human), UniProt Q9Y6V0 4489-4593)
T3 construct: Order of GST and PDZ part and limits not seen in the excerpts
T3 sequence: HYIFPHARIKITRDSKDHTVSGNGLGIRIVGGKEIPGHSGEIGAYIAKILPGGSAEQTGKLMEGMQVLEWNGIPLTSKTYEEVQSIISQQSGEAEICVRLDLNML

[4] = target: T4, GST-TAX-IP40 PDZ domain fusion protein (human, UniProt Q6B4M5 150-252 (rat entry))
T4 construct: also called TAX40; not shown: glutathione S-transferase encoded by vector pGEX-3X (Pharmacia)
T4 sequence: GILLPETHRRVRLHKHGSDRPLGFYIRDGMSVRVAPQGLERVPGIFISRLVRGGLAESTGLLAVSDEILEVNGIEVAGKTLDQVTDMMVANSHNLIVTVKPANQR

[5] = target: T5, GST-DVL1 PDZ domain fusion protein (human, UniProt O14640 247-339)
T5 construct: also called human dishevelled segment polarity protein homolog; not shown: glutathione S-transferase encoded by vector pGEX-3X (Pharmacia)
T5 sequence: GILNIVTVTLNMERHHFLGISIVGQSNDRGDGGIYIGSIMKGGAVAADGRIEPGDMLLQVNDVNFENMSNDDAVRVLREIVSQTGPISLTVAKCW

[6] = target: T6, GEF PDZ-GST fusion protein (Homo sapiens (Human), UniProt Q8TEU7 293-400)
T6 construct: The label GEF is not explained in the excerpts
T6 sequence: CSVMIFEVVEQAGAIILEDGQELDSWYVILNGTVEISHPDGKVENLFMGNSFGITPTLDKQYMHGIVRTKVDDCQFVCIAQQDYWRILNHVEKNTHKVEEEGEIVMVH

[7] = target: T7, TAX-IP33 PDZ-GST fusion protein (Homo sapiens (Human), UniProt O14910 103-193)
T7 construct: Order of GST and PDZ part and limits not seen in the excerpts
T7 sequence: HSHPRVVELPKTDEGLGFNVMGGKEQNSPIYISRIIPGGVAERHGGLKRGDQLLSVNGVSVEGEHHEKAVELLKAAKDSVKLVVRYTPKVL

[8] = target: T8, GST-LIM protein PDZ domain fusion protein (Human, UniProt Q96HC4 2-85)
T8 construct: also called Human LIM protein; not shown: glutathione S-transferase encoded by vector pGEX-3X (Pharmacia)
T8 sequence: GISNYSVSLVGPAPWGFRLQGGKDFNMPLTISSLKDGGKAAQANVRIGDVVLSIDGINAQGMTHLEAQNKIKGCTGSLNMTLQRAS

[9] = target: T9, GST-CASK PDZ domain fusion protein (Homo sapiens, UniProt O14936 486-575)
T9 construct: also called Homo sapiens CASK protein
T9 sequence: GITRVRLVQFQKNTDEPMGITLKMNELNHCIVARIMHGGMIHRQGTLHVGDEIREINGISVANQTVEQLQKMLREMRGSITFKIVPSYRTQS

[10] = target: T10, GST-KIAA0303 PDZ domain fusion protein (Homo sapiens (Human), UniProt O15021 1138-1228)
T10 construct: also called K303; not shown: glutathione S-transferase encoded by vector pGEX-3X (Pharmacia)
T10 sequence: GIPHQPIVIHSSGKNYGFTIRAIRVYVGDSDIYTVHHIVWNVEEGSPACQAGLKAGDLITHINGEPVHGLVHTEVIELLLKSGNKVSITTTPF

[11] = target: T11, X11β PDZ-GST fusion protein (Rattus norvegicus (Rat), UniProt O35431 560-745)
T11 construct: Order of GST and PDZ part and limits not seen in the excerpts
T11 chain: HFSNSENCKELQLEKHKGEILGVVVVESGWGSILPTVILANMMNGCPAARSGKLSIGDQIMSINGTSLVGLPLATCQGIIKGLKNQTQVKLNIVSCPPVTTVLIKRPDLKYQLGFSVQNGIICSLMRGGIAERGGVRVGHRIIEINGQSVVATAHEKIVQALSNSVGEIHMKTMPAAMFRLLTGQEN

[12] = target: T12, SP short PDZ-GST fusion protein (Homo sapiens (Human), UniProt O43464 350-435)
T12 construct: The label SP short is not explained in the excerpts
T12 sequence: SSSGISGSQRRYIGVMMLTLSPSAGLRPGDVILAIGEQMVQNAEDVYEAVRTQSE

[13] = target: T13, GST-DLG5 (p-dlg) PDZ domain fusion protein (Human, UniProt Q8TDM6 1343-1583)
T13 construct: also called Human discs large protein p-dlg; not shown: glutathione S-transferase encoded by vector pGEX-3X (Pharmacia)
T13 sequence: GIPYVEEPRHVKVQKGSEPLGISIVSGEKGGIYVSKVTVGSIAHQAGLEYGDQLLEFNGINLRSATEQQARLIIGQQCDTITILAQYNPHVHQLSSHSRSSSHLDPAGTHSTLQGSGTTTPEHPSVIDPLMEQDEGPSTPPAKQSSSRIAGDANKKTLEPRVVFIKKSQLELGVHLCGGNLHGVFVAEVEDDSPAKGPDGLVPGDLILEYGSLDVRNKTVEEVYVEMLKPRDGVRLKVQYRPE

[14] = target: T14, GST-TAX-IP2 PDZ domain fusion protein (human, UniProt O14908 129-216)
T14 construct: also called TAX-1P2; TAX2; not shown: glutathione S-transferase encoded by vector pGEX-3X (Pharmacia)
T14 chain: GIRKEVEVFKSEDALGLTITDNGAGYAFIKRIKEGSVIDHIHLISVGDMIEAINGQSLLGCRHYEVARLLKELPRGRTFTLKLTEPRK

Measured: binding result

Biotin-LASKSAEEGKQIPDSLSTDL [DOCK2 C-terminal peptide AA40L, biotinylated]
no binding: all assays above

Biotin-KKGTYLTDETHREVKFTSL [CD46 (Form 1) C-terminal peptide AA10L, biotinylated]
no binding: all assays above

Biotin-YSATYSELEDPGEMSPPIDL (also called FceRlb; FcεRβI) [FceRIb C-terminal peptide AA25L, biotinylated]
no binding: all assays above

Biotin-PYGTAMEKAQLKPPATSDA (also called CD49E (alpha-4)) [CD49E C-terminal peptide AA11L, biotinylated]
no binding: all assays above

Biotin-KDITSDSENSNFRNEIQSLV (also called CD95 (Apo-1/Fas); AAI3L) [CD95 (Fas) C-terminal peptide AA13L, biotinylated]
no binding: all assays above

Biotin-PSWRRSSLSESENATSLTTF (also called CXCR5) [BLR-1 C-terminal peptide AA45L, biotinylated]
no binding: all assays above

Biotin-SVFSIPTLWSPWPPSSSSQL (also called CD3η; CD3-eta) [CD3n C-terminal peptide AA4L, biotinylated]
no binding: all assays above

Biotin-VTSPNKHLGLVTPHKTELV [CD83 C-terminal peptide AA47L, biotinylated]
no binding: all assays above

Source: US20050037969A1 (ARBOR VITA, published 2005)
